The target of this assay is HRgpA-6H (Porphyromonas gingivalis) (UniProt P28784). The assay is described as follows: ELISA, FASEBA Fab on coated HRgpA-6H. (In general: An ELISA detects its analyte on a solid surface through an enzyme-linked reagent.)

The values that follow come from patent publication US20230365662A1.

Where “and” joins values, the source holds several entries; their conditions need not be identical. Equal values may be shown once.

Chain of UniProt P28784 (P28784 228-991): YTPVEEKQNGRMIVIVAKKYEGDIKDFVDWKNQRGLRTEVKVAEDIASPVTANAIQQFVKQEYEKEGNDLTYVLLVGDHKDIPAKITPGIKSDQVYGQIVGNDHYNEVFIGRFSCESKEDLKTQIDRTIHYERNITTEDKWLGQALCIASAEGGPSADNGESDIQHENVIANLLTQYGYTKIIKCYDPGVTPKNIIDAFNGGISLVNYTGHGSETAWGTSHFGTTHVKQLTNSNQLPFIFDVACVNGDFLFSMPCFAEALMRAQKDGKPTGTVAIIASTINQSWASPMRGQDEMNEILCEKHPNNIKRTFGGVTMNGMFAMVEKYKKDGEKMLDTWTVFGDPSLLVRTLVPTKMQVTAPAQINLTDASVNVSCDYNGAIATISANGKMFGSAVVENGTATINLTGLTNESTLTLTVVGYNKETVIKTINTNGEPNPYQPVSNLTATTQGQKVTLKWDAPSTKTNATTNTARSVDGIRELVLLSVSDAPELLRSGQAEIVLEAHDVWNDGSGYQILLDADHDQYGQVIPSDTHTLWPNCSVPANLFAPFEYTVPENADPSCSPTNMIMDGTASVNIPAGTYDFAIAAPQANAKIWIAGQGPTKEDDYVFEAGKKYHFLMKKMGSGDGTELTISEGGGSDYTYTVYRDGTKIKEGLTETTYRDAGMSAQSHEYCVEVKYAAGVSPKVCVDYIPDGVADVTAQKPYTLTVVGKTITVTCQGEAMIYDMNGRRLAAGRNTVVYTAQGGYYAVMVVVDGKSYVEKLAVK

B1: KB001 mouse Fab VL S32Q (Fab, V domains shown)
VH: EVQLKQSGPGLVAPSQSLSITCTVSGFSLSIYSVHWVRQPPGKGLEWLGMIWGGGSSDYNSALKSRLSISKDNSKSQVFLKMNSLQTDDTAMYYCARNGNFYAMDYWGQGTSVTVSS
VL: QIVLTQSPAIMSASLGERVTMTCTASSSVSSQFLHWYQQKPGSSPQLWIYSTSNLASGVPARFSGSGSGTSYSLTISSMEAEDAATYYCHQYHHSPYIYTFGGGTKLEIK
As for B1, the OD450nm was found to be 0.716 and the Ratio OD(Variant)/OD(WT) was determined as 0.847.

B2: KB001 mouse Fab VL S32W (Fab, V domains shown)
VH: EVQLKQSGPGLVAPSQSLSITCTVSGFSLSIYSVHWVRQPPGKGLEWLGMIWGGGSSDYNSALKSRLSISKDNSKSQVFLKMNSLQTDDTAMYYCARNGNFYAMDYWGQGTSVTVSS
VL: QIVLTQSPAIMSASLGERVTMTCTASSSVSSWFLHWYQQKPGSSPQLWIYSTSNLASGVPARFSGSGSGTSYSLTISSMEAEDAATYYCHQYHHSPYIYTFGGGTKLEIK
In the case of B2, the OD450nm was 0.649 and the Ratio OD(Variant)/OD(WT) worked out at 0.856.

B3: KB001 mouse Fab VL T52M (Fab, V domains shown)
VH: EVQLKQSGPGLVAPSQSLSITCTVSGFSLSIYSVHWVRQPPGKGLEWLGMIWGGGSSDYNSALKSRLSISKDNSKSQVFLKMNSLQTDDTAMYYCARNGNFYAMDYWGQGTSVTVSS
VL: QIVLTQSPAIMSASLGERVTMTCTASSSVSSSFLHWYQQKPGSSPQLWIYSMSNLASGVPARFSGSGSGTSYSLTISSMEAEDAATYYCHQYHHSPYIYTFGGGTKLEIK
As to B3, the OD450nm was 0.662 and the Ratio OD(Variant)/OD(WT) is 0.841.

B4: KB001 mouse Fab VL T52L (Fab, V domains shown)
VH: EVQLKQSGPGLVAPSQSLSITCTVSGFSLSIYSVHWVRQPPGKGLEWLGMIWGGGSSDYNSALKSRLSISKDNSKSQVFLKMNSLQTDDTAMYYCARNGNFYAMDYWGQGTSVTVSS
VL: QIVLTQSPAIMSASLGERVTMTCTASSSVSSSFLHWYQQKPGSSPQLWIYSLSNLASGVPARFSGSGSGTSYSLTISSMEAEDAATYYCHQYHHSPYIYTFGGGTKLEIK
Consider B4, for which the OD450nm is 0.769 and the Ratio OD(Variant)/OD(WT) was determined as 0.977.

B5: KB001 mouse Fab VL S53W (Fab, V domains shown)
VH: EVQLKQSGPGLVAPSQSLSITCTVSGFSLSIYSVHWVRQPPGKGLEWLGMIWGGGSSDYNSALKSRLSISKDNSKSQVFLKMNSLQTDDTAMYYCARNGNFYAMDYWGQGTSVTVSS
VL: QIVLTQSPAIMSASLGERVTMTCTASSSVSSSFLHWYQQKPGSSPQLWIYSTWNLASGVPARFSGSGSGTSYSLTISSMEAEDAATYYCHQYHHSPYIYTFGGGTKLEIK
On to B5, for which the OD450nm stood at 0.727 and the Ratio OD(Variant)/OD(WT) worked out at 0.923.

B6: KB001 mouse Fab VL S53Y (Fab, V domains shown)
VH: EVQLKQSGPGLVAPSQSLSITCTVSGFSLSIYSVHWVRQPPGKGLEWLGMIWGGGSSDYNSALKSRLSISKDNSKSQVFLKMNSLQTDDTAMYYCARNGNFYAMDYWGQGTSVTVSS
VL: QIVLTQSPAIMSASLGERVTMTCTASSSVSSSFLHWYQQKPGSSPQLWIYSTYNLASGVPARFSGSGSGTSYSLTISSMEAEDAATYYCHQYHHSPYIYTFGGGTKLEIK
With B6, the OD450nm was 0.776 and 0.781; the Ratio OD(Variant)/OD(WT) was 0.985 and 0.992.

B7: KB001 mouse Fab VL F33H (Fab, V domains shown)
VH: EVQLKQSGPGLVAPSQSLSITCTVSGFSLSIYSVHWVRQPPGKGLEWLGMIWGGGSSDYNSALKSRLSISKDNSKSQVFLKMNSLQTDDTAMYYCARNGNFYAMDYWGQGTSVTVSS
VL: QIVLTQSPAIMSASLGERVTMTCTASSSVSSSHLHWYQQKPGSSPQLWIYSTSNLASGVPARFSGSGSGTSYSLTISSMEAEDAATYYCHQYHHSPYIYTFGGGTKLEIK
In the case of B7, the OD450nm stood at 0.736 and the Ratio OD(Variant)/OD(WT) is 0.971.

B8: KB001 mouse Fab VL T52K (Fab, V domains shown)
VH: EVQLKQSGPGLVAPSQSLSITCTVSGFSLSIYSVHWVRQPPGKGLEWLGMIWGGGSSDYNSALKSRLSISKDNSKSQVFLKMNSLQTDDTAMYYCARNGNFYAMDYWGQGTSVTVSS
VL: QIVLTQSPAIMSASLGERVTMTCTASSSVSSSFLHWYQQKPGSSPQLWIYSKSNLASGVPARFSGSGSGTSYSLTISSMEAEDAATYYCHQYHHSPYIYTFGGGTKLEIK
As to B8, the OD450nm is 0.681 and the Ratio OD(Variant)/OD(WT) amounted to 0.865.

B9: KB001 mouse Fab VL S53D (Fab, V domains shown)
VH: EVQLKQSGPGLVAPSQSLSITCTVSGFSLSIYSVHWVRQPPGKGLEWLGMIWGGGSSDYNSALKSRLSISKDNSKSQVFLKMNSLQTDDTAMYYCARNGNFYAMDYWGQGTSVTVSS
VL: QIVLTQSPAIMSASLGERVTMTCTASSSVSSSFLHWYQQKPGSSPQLWIYSTDNLASGVPARFSGSGSGTSYSLTISSMEAEDAATYYCHQYHHSPYIYTFGGGTKLEIK
On to B9, for which the OD450nm amounted to 0.775 and the Ratio OD(Variant)/OD(WT) came to 0.984.

B10: KB001 mouse Fab VL S53A (Fab, V domains shown)
VH: EVQLKQSGPGLVAPSQSLSITCTVSGFSLSIYSVHWVRQPPGKGLEWLGMIWGGGSSDYNSALKSRLSISKDNSKSQVFLKMNSLQTDDTAMYYCARNGNFYAMDYWGQGTSVTVSS
VL: QIVLTQSPAIMSASLGERVTMTCTASSSVSSSFLHWYQQKPGSSPQLWIYSTANLASGVPARFSGSGSGTSYSLTISSMEAEDAATYYCHQYHHSPYIYTFGGGTKLEIK
For the molecule B10, the OD450nm is 0.784 and the Ratio OD(Variant)/OD(WT) worked out at 0.996.

B11: KB001 mouse Fab VL L34I (Fab, V domains shown)
VH: EVQLKQSGPGLVAPSQSLSITCTVSGFSLSIYSVHWVRQPPGKGLEWLGMIWGGGSSDYNSALKSRLSISKDNSKSQVFLKMNSLQTDDTAMYYCARNGNFYAMDYWGQGTSVTVSS
VL: QIVLTQSPAIMSASLGERVTMTCTASSSVSSSFIHWYQQKPGSSPQLWIYSTSNLASGVPARFSGSGSGTSYSLTISSMEAEDAATYYCHQYHHSPYIYTFGGGTKLEIK
In the case of B11, the OD450nm was 0.67 and the Ratio OD(Variant)/OD(WT) is 0.884.

B12: KB001 mouse Fab VL S53R (Fab, V domains shown)
VH: EVQLKQSGPGLVAPSQSLSITCTVSGFSLSIYSVHWVRQPPGKGLEWLGMIWGGGSSDYNSALKSRLSISKDNSKSQVFLKMNSLQTDDTAMYYCARNGNFYAMDYWGQGTSVTVSS
VL: QIVLTQSPAIMSASLGERVTMTCTASSSVSSSFLHWYQQKPGSSPQLWIYSTRNLASGVPARFSGSGSGTSYSLTISSMEAEDAATYYCHQYHHSPYIYTFGGGTKLEIK
With B12, the OD450nm is 0.637 and the Ratio OD(Variant)/OD(WT) turned out to be 0.809.

B13: KB001 mouse Fab VL L34V (Fab, V domains shown)
VH: EVQLKQSGPGLVAPSQSLSITCTVSGFSLSIYSVHWVRQPPGKGLEWLGMIWGGGSSDYNSALKSRLSISKDNSKSQVFLKMNSLQTDDTAMYYCARNGNFYAMDYWGQGTSVTVSS
VL: QIVLTQSPAIMSASLGERVTMTCTASSSVSSSFVHWYQQKPGSSPQLWIYSTSNLASGVPARFSGSGSGTSYSLTISSMEAEDAATYYCHQYHHSPYIYTFGGGTKLEIK
For B13, the OD450nm was 0.641 and 0.634; the Ratio OD(Variant)/OD(WT) is 0.846 and 0.836.

B14: KB001 mouse Fab VL S53L (Fab, V domains shown)
VH: EVQLKQSGPGLVAPSQSLSITCTVSGFSLSIYSVHWVRQPPGKGLEWLGMIWGGGSSDYNSALKSRLSISKDNSKSQVFLKMNSLQTDDTAMYYCARNGNFYAMDYWGQGTSVTVSS
VL: QIVLTQSPAIMSASLGERVTMTCTASSSVSSSFLHWYQQKPGSSPQLWIYSTLNLASGVPARFSGSGSGTSYSLTISSMEAEDAATYYCHQYHHSPYIYTFGGGTKLEIK
B14: the OD450nm is 0.639 and 0.636; the Ratio OD(Variant)/OD(WT) is 0.811 and 0.808.

B15: KB001 mouse Fab VL S53C (Fab, V domains shown)
VH: EVQLKQSGPGLVAPSQSLSITCTVSGFSLSIYSVHWVRQPPGKGLEWLGMIWGGGSSDYNSALKSRLSISKDNSKSQVFLKMNSLQTDDTAMYYCARNGNFYAMDYWGQGTSVTVSS
VL: QIVLTQSPAIMSASLGERVTMTCTASSSVSSSFLHWYQQKPGSSPQLWIYSTCNLASGVPARFSGSGSGTSYSLTISSMEAEDAATYYCHQYHHSPYIYTFGGGTKLEIK
Turning to B15, the OD450nm turned out to be 0.697 and the Ratio OD(Variant)/OD(WT) was determined as 0.885.

B16: KB001 mouse Fab VL L34M (Fab, V domains shown)
VH: EVQLKQSGPGLVAPSQSLSITCTVSGFSLSIYSVHWVRQPPGKGLEWLGMIWGGGSSDYNSALKSRLSISKDNSKSQVFLKMNSLQTDDTAMYYCARNGNFYAMDYWGQGTSVTVSS
VL: QIVLTQSPAIMSASLGERVTMTCTASSSVSSSFMHWYQQKPGSSPQLWIYSTSNLASGVPARFSGSGSGTSYSLTISSMEAEDAATYYCHQYHHSPYIYTFGGGTKLEIK
Turning to B16, the OD450nm was 0.736 and 0.741 and 0.714; the Ratio OD(Variant)/OD(WT) was 0.971 and 0.978 and 0.911.

B17: KB001 mouse Fab VL T52R (Fab, V domains shown)
VH: EVQLKQSGPGLVAPSQSLSITCTVSGFSLSIYSVHWVRQPPGKGLEWLGMIWGGGSSDYNSALKSRLSISKDNSKSQVFLKMNSLQTDDTAMYYCARNGNFYAMDYWGQGTSVTVSS
VL: QIVLTQSPAIMSASLGERVTMTCTASSSVSSSFLHWYQQKPGSSPQLWIYSRSNLASGVPARFSGSGSGTSYSLTISSMEAEDAATYYCHQYHHSPYIYTFGGGTKLEIK
Regarding B17, the OD450nm was 0.724 and 0.681 and 0.685; the Ratio OD(Variant)/OD(WT) is 0.919 and 0.865 and 0.87.

B18: KB001 mouse Fab VL F33N (Fab, V domains shown)
VH: EVQLKQSGPGLVAPSQSLSITCTVSGFSLSIYSVHWVRQPPGKGLEWLGMIWGGGSSDYNSALKSRLSISKDNSKSQVFLKMNSLQTDDTAMYYCARNGNFYAMDYWGQGTSVTVSS
VL: QIVLTQSPAIMSASLGERVTMTCTASSSVSSSNLHWYQQKPGSSPQLWIYSTSNLASGVPARFSGSGSGTSYSLTISSMEAEDAATYYCHQYHHSPYIYTFGGGTKLEIK
B18: the OD450nm amounted to 0.64 and the Ratio OD(Variant)/OD(WT) turned out to be 0.844.

B19: KB001 mouse Fab VL S53E (Fab, V domains shown)
VH: EVQLKQSGPGLVAPSQSLSITCTVSGFSLSIYSVHWVRQPPGKGLEWLGMIWGGGSSDYNSALKSRLSISKDNSKSQVFLKMNSLQTDDTAMYYCARNGNFYAMDYWGQGTSVTVSS
VL: QIVLTQSPAIMSASLGERVTMTCTASSSVSSSFLHWYQQKPGSSPQLWIYSTENLASGVPARFSGSGSGTSYSLTISSMEAEDAATYYCHQYHHSPYIYTFGGGTKLEIK
For B19, the OD450nm turned out to be 0.766 and the Ratio OD(Variant)/OD(WT) came out at 0.973.
